{
  "source": "paper PMC10095102",
  "about": "“Conformational Changes of Acyl Carrier Protein Switch the Chain Length Preference of Acyl-ACP Thioesterase ChFatB2” (International Journal of Molecular Sciences, 2023)",
  "key": {"[1]": {"molecular_target": "T1, acyl-ACP thioesterase ChFatB2 from Cuphea hookeriana, excluding the transit peptide (residues 129-395) (Cuphea hookeriana, UniProt Q39514 129-395)", "T1 sequence (looked up)": "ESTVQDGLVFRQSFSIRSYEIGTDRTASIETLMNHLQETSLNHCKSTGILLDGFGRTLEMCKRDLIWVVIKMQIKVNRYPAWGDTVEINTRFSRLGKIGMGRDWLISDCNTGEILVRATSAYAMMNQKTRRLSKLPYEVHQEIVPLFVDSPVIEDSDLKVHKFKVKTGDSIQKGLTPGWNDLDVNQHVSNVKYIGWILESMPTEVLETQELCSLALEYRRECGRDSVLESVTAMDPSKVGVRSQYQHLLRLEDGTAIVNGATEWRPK", "experiment": "cell-based or functional assay"}, "[2]": {"molecular_target": "T1, acyl-ACP thioesterase ChFatB2 from …", "experiment": "cell-based or functional assay", "remark": "listed apart in the source"}, "[3]": {"molecular_target": "T1, acyl-ACP thioesterase ChFatB2 from …", "experiment": "liquid crystal assay; ChFatB2 (5 μg/mL, 1.5 µL) dried on DMOAP-coated glass slides; ACP solutions (10 μg/mL, 1.5 µL) deposited on the immobilized ChFatB2, 30 min, washed with deionized water; grayscale of polarised-light images of the liquid crystal cell (Image J); semi-quantitative; holo-ACP defined as 100% binding", "settings": "both partners purified"}},
  "data": [
    {"binder": "C8-acyl acyl carrier protein 2 from Cuphea lanceolata (residues 54-137) (natural protein, UniProt P52412 54-137, looked up, C8 (8:0) acyl chain on the phosphopantetheine of holo-ACP (residue not given), acyl carrier protein ClACP2, Cuphea lanceolata, UniProt P52412, residues 54-137, excluding the chloroplast transit peptide; also called C8-ClACP2) QAKPETVTKVCNIVKKQLALPDDSDVSGVSKFSALGADSLDTVEIVMGLEEEFGISVEEESAQSIQTVQDAADLIEKLMEKKGH", "values": [
      {"measurement": "relative activity of ChFatB2 (thioesterase, DTNB assay)", "setting": "[1]", "value": 0.51, "unit": "µmol/min/mg"},
      {"measurement": "Km of ChFatB2 thioesterase activity (DTNB assay, Michaelis-Menten fit)", "setting": "[2]", "value": 217, "unit": "µM"},
      {"measurement": "grayscale of the liquid crystal image", "setting": "[3]", "value": "139 ± 6", "unit": "grayscale"}
    ]},
    {"binder": "holo acyl carrier protein 2 from Cuphea lanceolata, excluding the chloroplast transit peptide (residues 54-137) (natural protein, UniProt P52412 54-137, looked up, holo form (phosphopantetheine; residue not given), acyl carrier protein ClACP2, Cuphea lanceolata, UniProt P52412, residues 54-137, excluding the chloroplast transit peptide; also called holo-ClACP2; ClACP2; source: E. coli BAP1 (chromosomal B. subtilis Sfp), purified (Ni-NTA, Superdex 200)) QAKPETVTKVCNIVKKQLALPDDSDVSGVSKFSALGADSLDTVEIVMGLEEEFGISVEEESAQSIQTVQDAADLIEKLMEKKGH", "values": [
      {"measurement": "grayscale of the liquid crystal image", "setting": "[3]", "value": "145 ± 19.1", "unit": "grayscale"}
    ]},
    {"binder": "C10-acyl acyl carrier protein 2 from Cuphea lanceolata (residues 54-137) (natural protein, UniProt P52412 54-137, looked up, C10 (10:0) acyl chain on the phosphopantetheine of holo-ACP (residue not given), acyl carrier protein ClACP2, Cuphea lanceolata, UniProt P52412, residues 54-137, excluding the chloroplast transit peptide; also called C10-ClACP2) QAKPETVTKVCNIVKKQLALPDDSDVSGVSKFSALGADSLDTVEIVMGLEEEFGISVEEESAQSIQTVQDAADLIEKLMEKKGH", "values": [
      {"measurement": "relative activity of ChFatB2 (thioesterase, DTNB assay)", "setting": "[1]", "value": 0.33, "unit": "µmol/min/mg"},
      {"measurement": "Km of ChFatB2 thioesterase activity (DTNB assay, Michaelis-Menten fit)", "setting": "[2]", "value": 263, "unit": "µM"},
      {"measurement": "grayscale of the liquid crystal image", "setting": "[3]", "value": "96.7 ± 11", "unit": "grayscale"}
    ]},
    {"binder": "C8-acyl acyl carrier protein from Escherichia coli (natural protein, C8 (8:0) acyl chain on the phosphopantetheine of holo-ACP (residue not given), also called C8-EcACP; C8-ACP) STIEERVKKIIGEQLGVKQEEVTNNASFVEDLGADSLDTVELVMALEEEFDTEIPDEEAEKITTVQAAIDYINGHQA", "values": [
      {"measurement": "relative activity of ChFatB2 (thioesterase, DTNB assay)", "setting": "[1]", "value": 0.07, "unit": "µmol/min/mg"},
      {"measurement": "Km of ChFatB2 thioesterase activity (DTNB assay, Michaelis-Menten fit)", "setting": "[2]", "value": 350, "unit": "µM"},
      {"measurement": "grayscale of the liquid crystal image", "setting": "[3]", "value": "106 ± 11.8", "unit": "grayscale"}
    ]},
    {"binder": "holo acyl carrier protein from Escherichia coli (natural protein, holo form (phosphopantetheine; residue not given), also called holo-EcACP; EC-holo-ACP; source: E. coli BAP1 (chromosomal B. subtilis Sfp), purified (Ni-NTA, Superdex 200)) STIEERVKKIIGEQLGVKQEEVTNNASFVEDLGADSLDTVELVMALEEEFDTEIPDEEAEKITTVQAAIDYINGHQA", "values": [
      {"measurement": "grayscale of the liquid crystal image", "setting": "[3]", "value": "156 ± 3.2", "unit": "grayscale"}
    ]},
    {"binder": "C10-acyl acyl carrier protein from Escherichia coli (natural protein, C10 (10:0) acyl chain on the phosphopantetheine of holo-ACP (residue not given), also called C10-EcACP) STIEERVKKIIGEQLGVKQEEVTNNASFVEDLGADSLDTVELVMALEEEFDTEIPDEEAEKITTVQAAIDYINGHQA", "values": [
      {"measurement": "relative activity of ChFatB2 (thioesterase, DTNB assay)", "setting": "[1]", "value": 0.17, "unit": "µmol/min/mg"},
      {"measurement": "Km of ChFatB2 thioesterase activity (DTNB assay, Michaelis-Menten fit)", "setting": "[2]", "value": 186, "unit": "µM"},
      {"measurement": "grayscale of the liquid crystal image", "setting": "[3]", "value": "138 ± 5.3", "unit": "grayscale"}
    ]}
  ]
}
